Data published in US20230051954A1 (published 2023).
Changes are numbered by the printed parent chain. Numbers in names are those of the source.

T1: cynomolgus monkey (Macaca fascicularis) transferrin receptor 1 (cynomolgus monkey (Macaca fascicularis), UniProt Q5RDH6 89-760 (Pongo abelii entry), limits assumed)
T1 construct: Recombinant protein used in ELISA and SPR; also called cTfR1; cyno TfR1
T1 chain: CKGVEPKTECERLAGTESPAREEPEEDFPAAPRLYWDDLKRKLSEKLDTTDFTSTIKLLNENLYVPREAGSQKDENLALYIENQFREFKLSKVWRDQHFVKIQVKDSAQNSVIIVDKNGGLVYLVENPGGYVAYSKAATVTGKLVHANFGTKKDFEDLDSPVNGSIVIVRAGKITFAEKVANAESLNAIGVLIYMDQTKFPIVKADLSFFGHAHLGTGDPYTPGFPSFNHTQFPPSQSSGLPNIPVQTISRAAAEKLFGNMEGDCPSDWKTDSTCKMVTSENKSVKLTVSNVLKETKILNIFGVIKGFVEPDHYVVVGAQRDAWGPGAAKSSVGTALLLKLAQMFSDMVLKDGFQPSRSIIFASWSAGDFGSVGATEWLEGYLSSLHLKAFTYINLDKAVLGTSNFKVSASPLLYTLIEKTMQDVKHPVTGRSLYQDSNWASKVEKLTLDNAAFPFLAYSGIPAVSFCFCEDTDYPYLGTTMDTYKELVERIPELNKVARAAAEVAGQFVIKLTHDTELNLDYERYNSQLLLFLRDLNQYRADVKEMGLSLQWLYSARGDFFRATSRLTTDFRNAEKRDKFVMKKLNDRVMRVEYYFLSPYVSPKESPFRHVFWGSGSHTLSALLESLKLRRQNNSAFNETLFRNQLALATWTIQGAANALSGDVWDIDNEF

B1: 3M12 (VH3/Vk2) Fab conjugated to DMPK-targeting oligonucleotide ASO300 (Fab, V domains shown)
VH: QVQLQESGPGLVKPSQTLSLTCSVTGYSITSGYYWNWIRQPPGKGLEWMGYITFDGANNYNPSLKNRVSISRDTSKNQFSLKLSSVTAEDTATYYCTRSSYDYDVLDYWGQGTTVTVSS
VL: DIQMTQSPSSLSASVGDRVTITCRASQDISNFLNWYQQKPGQPVKLLIYYTSRLHSGVPSRFSGSGSGTDFTLTISSLQPEDFATYFCQQGHTLPYTFGQGTKLEIKR
notes: Fab covalently conjugated to antisense oligonucleotide ASO300 (linker of Formula (C)); also called 3M12 (VH3/Vk2) conjugate; DMPK oligo conjugate
B2: 3M12 (VH4/Vk3) Fab conjugated to DMPK-targeting oligonucleotide ASO300 (Fab, V domains shown)
VH: B1 VH with S23T, M49I
VL: B1 VL with F87Y
notes: Fab covalently conjugated to ASO300; also called 3M12 (VH4/Vk3) conjugate; DMPK oligo conjugate
B3: 3A4 (VH3-N54S/Vk4) Fab conjugated to DMPK-targeting oligonucleotide ASO300 (Fab, V domains shown)
VH: EVQLVQSGSELKKPGASVKVSCTASGFNIKDDYMYWVRQPPGKGLEWIGWIDPESGDTEYASKFQDRVTVTADTSTNTAYMELSSLRSEDTAVYYCTLWLRRGLDYWGQGTLVTVSS
VL: DIVMTQSPLSLPVTPGEPASISCRSSKSLLHSNGYTYLFWFQQRPGQSPRLLIYRMSNLASGVPDRFSGSGSGTDFTLKISRVEAEDVGVYYCMQHLEYPFTFGGGTKVEIKR
notes: Fab covalently conjugated to ASO300; also called 3A4 (VH3-N54S/Vk4) conjugate
B4: 3A4 (VH3/Vk4) Fab conjugated to DMPK-targeting oligonucleotide ASO300 (Fab, V domains shown)
VH: B3 VH with S55N
VL: B3 VL
notes: Fab covalently conjugated to ASO300; also called 3A4 (VH3/Vk4) conjugate
B5: 5H12 (VH5-C33D/Vk4) Fab conjugated to DMPK-targeting oligonucleotide ASO300 (Fab, V domains shown)
VH: QVQLVQSGAEVKKPGASVKVSCKASGYSFTDYDINWVRQAPGQGLEWMGWIYPGSGNTRYSERFKGRVTITRDTSASTAYMELSSLRSEDTAVYYCAREDYYPYHGMDYWGQGTLVTVSS
VL: DIVMTQSPDSLAVSLGERATINCRASESVDGYDNSFMHWYQQKPGQPPKLLIFRASNLESGVPDRFSGSGSGTDFTLTISSLQAEDVAVYYCQQSSEDPWTFGQGTKLEIKR
notes: Fab covalently conjugated to ASO300; also called 5H12 (VH5-C33D/Vk4) conjugate
B6: 5H12 (VH5-C33Y/Vk4) Fab conjugated to DMPK-targeting oligonucleotide ASO300 (Fab, V domains shown)
VH: B5 VH with D33Y
VL: B5 VL
notes: Fab covalently conjugated to ASO300
B7: 3A4 (VH3-N54T/Vk4) Fab conjugated to DMPK-targeting oligonucleotide ASO300 (Fab, V domains shown)
VH: B3 VH with S55T
VL: B3 VL
notes: Fab covalently conjugated to ASO300; also called 3A4 (VH3-N54T/Vk4) conjugate
B8: 5H12 (VH5-C33Y/Vk3) Fab conjugated to DMPK-targeting oligonucleotide ASO300 (Fab, V domains shown)
VH: B5 VH with D33Y
VL: B5 VL with M4L, G72R
notes: Fab covalently conjugated to ASO300; also called 5H12 (VH5-C33Y/Vk3) conjugate

biological target: T2, recombinant human transferrin receptor 1 (human, UniProt P02786 89-760); experiment: ELISA, DMPK oligo (ASO300) conjugate binding to hTfR1
T2 construct: Recombinant protein used in ELISA and SPR; also called hTfR1; huTfR1
T2 sequence (P02786 89-760 limits assumed): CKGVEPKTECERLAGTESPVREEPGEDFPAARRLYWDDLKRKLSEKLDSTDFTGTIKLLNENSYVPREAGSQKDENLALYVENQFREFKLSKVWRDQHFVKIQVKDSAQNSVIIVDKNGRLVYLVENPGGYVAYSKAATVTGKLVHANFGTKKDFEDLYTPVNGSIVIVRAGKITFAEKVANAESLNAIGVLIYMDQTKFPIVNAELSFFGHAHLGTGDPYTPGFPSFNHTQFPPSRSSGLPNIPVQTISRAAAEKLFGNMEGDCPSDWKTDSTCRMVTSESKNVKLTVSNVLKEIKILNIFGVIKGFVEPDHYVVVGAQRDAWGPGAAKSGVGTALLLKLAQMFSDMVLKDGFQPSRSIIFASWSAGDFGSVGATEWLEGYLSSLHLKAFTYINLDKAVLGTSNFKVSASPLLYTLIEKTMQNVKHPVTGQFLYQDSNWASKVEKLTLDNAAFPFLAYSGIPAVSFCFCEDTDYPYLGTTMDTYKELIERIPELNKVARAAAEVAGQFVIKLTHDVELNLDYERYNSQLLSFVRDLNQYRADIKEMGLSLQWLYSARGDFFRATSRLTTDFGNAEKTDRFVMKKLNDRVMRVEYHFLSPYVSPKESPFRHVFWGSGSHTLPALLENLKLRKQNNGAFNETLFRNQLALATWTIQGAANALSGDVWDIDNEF

B1 and B2 are within 1.5-fold of each other in EC50: 1.14 nM for the first, 1.18 nM for the second.

B3 and B4 are within 1.5-fold of each other in EC50: 2.71 nM for the first, 2.84 nM for the second.

First: B5
Second: B6
The EC50 of the first is 7.9-fold higher: 110 nM for the first, 13.9 nM for the second.

Biological target: T1, cynomolgus monkey (Macaca fascicularis) …
Experiment: ELISA, DMPK oligo (ASO300) conjugate binding to cyno TfR1

B1 and B2 are within 1.5-fold of each other in EC50: 2.26 nM for the first, 1.85 nM for the second.

B3 and B7 are within 1.5-fold of each other in EC50: 4.1 nM for the first, 5.12 nM for the second.

B4 and B5 are within 1.5-fold of each other in EC50: 7.59 nM for the first, 10.2 nM for the second.

B6 was tested, and the EC50 was 13.9 nM.

Biological target: T1, cynomolgus monkey (Macaca fascicularis) …
Experiment: ELISA, plate-coated cyno TfR1, Fab-ASO300 conjugate; printed as 'Conjugate binding affinity ELISA'

B1 and B2 are within 1.5-fold of each other in EC50: 2.9 nM for the first, 2.1 nM for the second.

Going from B3 to B7, the EC50 falls from 7.8 nM to 4.7 nM (1.7-fold).

B4 and B5 are within 1.5-fold of each other in EC50: 7.6 nM for the first, 10.2 nM for the second.

B8 was tested, and the EC50 was 2.3 nM.

biological target: T2, recombinant human transferrin receptor 1; experiment: ELISA, plate-coated human TfR1, Fab-ASO300 conjugate; printed as 'Conjugate binding affinity ELISA'

B1 and B2 are within 1.5-fold of each other in EC50: 2.2 nM for the first, 1.7 nM for the second.

B3 and B7 are within 1.5-fold of each other in EC50: 2.9 nM for the first, 2.8 nM for the second.

Going from B4 to B5, the EC50 rises from 2.8 nM to 110 nM (39-fold). The first is the more potent here.

B6 and B8 are within 1.5-fold of each other in EC50: 23.7 nM for the first, 33.4 nM for the second.
